Assay results reported in patent US20160185837A1 (Medimmune Limited, priority 2013, published 2016).
Ends that are not written are not given here.

What was measured:
[1] = tested on: cyno GCGr (cGCGr); assay: cAMP assay, cells expressing cyno GCGr, 4.2% cyno serum albumin; format: cell-based, cynomolgus monkey; settings: culture medium containing 4.2% cyno serum albumin
From the text: (§1) In certain aspects, the assay can also be carried out in medium supplemented with serum albumin that corresponds to the receptor being tested, e.g., human serum albumin for testing cAMP activity at hGIPr or hGLP-1r, rat serum albumin for testing cAMP activity at rGIPr or rGLP-1r, and so on. Low protein binding 384-well plates (Greiner #781280) were used to perform eleven 1 in 5 serial dilutions of test samples that were made in assay medium. All sample dilutions were made in duplicate.
A frozen cryo-vial of cells expressing the receptor of interest was thawed rapidly in a water-bath, transferred to pre-warmed assay media and spun at 240×g for 5 minutes. Cells were re-suspended in assay buffer at an optimized concentration (e.g., hGLP-1r and hGIPr cells at 0.5×10^5 cells/ml). […]
cAMP levels were measured using a commercially available cAMP dynamic 2 HTRF kit (Cisbio, Cat #62AM4PEJ), following the two step protocol as per manufacturer's recommendations. […] Plates were incubated at room temperature for one hour and then read on an Envision (Perkin Elmer) using excitation wavelength of 320 nm and emission wavelengths of 620 nm & 665 nm. Data was transformed to % Delta F as described in manufacturer's guidelines and then transformed to percent activation of maximal native agonist response and analysed by 4-parameter logistic fit to determine EC50 values.

[2] = molecular target: T1, cyno GLP-1r (cGLP-1r) (Macaca fascicularis, UniProt F8V479); assay: cAMP assay, cells expressing cyno GLP-1r, 4.2% cyno serum albumin; format: cell-based, cynomolgus monkey; settings: culture medium containing 4.2% cyno serum albumin; read-out: EC50 for cGLP-1r
T1 construct: expressed in transfected cells
From the text: as §1, with “Low protein binding 384-well plates (Greiner #781280) were used to perform eleven 1 in 5 serial dilutions of test samples that were made in assay medium.” left out
A frozen cryo-vial of cells expressing the receptor of interest was thawed rapidly in a water-bath, transferred to pre-warmed assay media and spun at 240×g for 5 minutes. Cells were re-suspended in assay buffer at an optimized concentration (e.g., hGLP-1r and hGIPr cells at 0.5×10^5 cells/ml).
To this, 5 μL cell suspension was added and the plates incubated at room temperature for 30 minutes.
cAMP levels were measured using a commercially available cAMP dynamic 2 HTRF kit (Cisbio, Cat #62AM4PEJ), following the two step protocol as per manufacturer's recommendations. In brief; anti-cAMP cryptate (donor fluorophore) and cAMP-d2 (acceptor fluorophore) were made up separately by diluting each 1/20 in conjugate & lysis buffer provided in the kit. […] Data was transformed to % Delta F as described in manufacturer's guidelines and then transformed to percent activation of maximal native agonist response and analysed by 4-parameter logistic fit to determine EC50 values.

[3] = Extended pharmacokinetics, serum ELISA for protein (Fc) detection; format: in vivo, CD male rats; settings: 1 mg/kg subcutaneously or intravenously, serum out to 168 hours
Method: More extended pharmacokinetic assays to determine protein stability and activity were performed as follows. CD male rats (n=3) were injected subcutaneously or intravenously with 1 mg/kg IP088 or GLP1a-Fc. Periodic serum samples were obtained out to 168 hours. The serum samples were subjected to ELISA for protein (Fc) detection by the following method. ELISA plates (Costar 3690) were coated with Mouse anti-human IgG (JCD-10) 1/500 in PBS (final concentration 1 μg/ml). […] was added to each well and the plates were incubated overnight at 4° C. Following washing with PBS-Tween (PBS-T), the plates were blocked with […] 1% BSA in PBS for 1 h at RT with gentle shaking. Following washing with PBS-T, standards, and dilutions of […] samples were added (50 μl/well), and the plate was incubated for 2 h at RT with gentle shaking. Following washing […] biotinylated mouse anti-human IgG (JCD-10) diluted 1/1000 in ELISA incubation buffer (final concentration 0.5 μg/ml) was added to each well and the plates were incubated for 1 h at RT with gentle shaking. Following washing […] of Streptavidin-HRP diluted 1/1000 in ELISA incubation buffer was added to each well, and the plates were incubated for 45 min at RT with gentle shaking. […]

T1 sequence (F8V479 24-463): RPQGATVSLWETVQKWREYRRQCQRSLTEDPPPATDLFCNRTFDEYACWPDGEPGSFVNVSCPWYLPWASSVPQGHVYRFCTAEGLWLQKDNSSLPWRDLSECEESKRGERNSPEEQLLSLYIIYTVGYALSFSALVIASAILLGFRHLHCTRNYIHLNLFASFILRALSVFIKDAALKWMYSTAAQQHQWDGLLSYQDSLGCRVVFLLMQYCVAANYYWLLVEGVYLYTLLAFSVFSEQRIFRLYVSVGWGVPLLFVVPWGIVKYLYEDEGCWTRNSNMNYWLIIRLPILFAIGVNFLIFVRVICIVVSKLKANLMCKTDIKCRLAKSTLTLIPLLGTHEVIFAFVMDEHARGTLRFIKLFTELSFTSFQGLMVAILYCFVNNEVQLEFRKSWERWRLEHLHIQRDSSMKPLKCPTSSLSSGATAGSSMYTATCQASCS

Substance: GLP1a-Fc: GLP-1 analogue-Fc (gamma4) fusion control; GLP-1 agonist; Peptide SEQ ID NO:62-Fc, SEQ ID NO:189 (HGEGTFTSDVSSYLEEQAAKEFIAWLVKGR; also: Fc (gamma4) fusion)
- EC50 [1]: > 1000 nM
- EC50 [2]: 0.011 nM
- PK profile by Fc ELISA (Cmax, bioavailability, half-life), in words [3]: equivalent PK profiles
